This is an account of results in patent US20190300577A1 (BETH ISRAEL DEACONESS MEDICAL CENTER, published 2019).

Ends that are not written are not given here.

The target in experiment [1] is T1, recombinant human P-selectin Fc chimera (human, UniProt P16109 42-771).
T1 construct: also called P-sel-Ig; recombinant Ig chimera of P-selectin
Nature of the experiment: Biacore; biotinylated glycopeptide captured on a streptavidin chip, hP-sel-Ig flowed over (trace shown at 20 µg/ml) [lower left panel 'hP-sel-Ig (20 µg/ml)' (D in the legend]. From the text:
(§1) GSnP-6 bound to E- and L-selectin with even lower apparent affinity.
(In general: Surface plasmon resonance follows binding to a sensor surface in real time, without labels.)

Experiment [2] deals with T2, recombinant mouse P-selectin Fc chimera (mouse, UniProt Q01102 42-709).
T2 construct: also called murine P-selectin; P-sel-Ig; not shown: Ig (Fc) part of the chimera
T2 sequence (looked up): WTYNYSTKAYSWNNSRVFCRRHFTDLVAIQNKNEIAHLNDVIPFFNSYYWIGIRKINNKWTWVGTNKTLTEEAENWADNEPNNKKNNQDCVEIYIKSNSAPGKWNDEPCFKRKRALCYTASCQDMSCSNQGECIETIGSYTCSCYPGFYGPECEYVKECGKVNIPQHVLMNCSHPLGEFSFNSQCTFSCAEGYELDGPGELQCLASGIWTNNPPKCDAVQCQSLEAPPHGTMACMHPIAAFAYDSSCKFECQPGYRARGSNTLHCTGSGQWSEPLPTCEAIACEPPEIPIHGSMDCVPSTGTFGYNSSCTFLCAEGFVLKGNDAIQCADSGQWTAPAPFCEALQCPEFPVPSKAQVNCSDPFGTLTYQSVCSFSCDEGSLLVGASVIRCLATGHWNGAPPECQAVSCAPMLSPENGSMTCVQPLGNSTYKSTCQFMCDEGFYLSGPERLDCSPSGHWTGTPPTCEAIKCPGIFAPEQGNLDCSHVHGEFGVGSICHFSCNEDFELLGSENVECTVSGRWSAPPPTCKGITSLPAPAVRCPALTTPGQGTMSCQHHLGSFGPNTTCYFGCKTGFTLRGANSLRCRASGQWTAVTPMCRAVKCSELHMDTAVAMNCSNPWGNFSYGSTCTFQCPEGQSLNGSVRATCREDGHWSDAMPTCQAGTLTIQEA
Nature of the experiment: Biacore; biotinylated glycopeptide captured on a streptavidin chip, mP-sel-Ig flowed over (trace shown at 20 µg/ml) [lower middle panel 'mP-sel-Ig (20 µg/ml)' (E in the legend].
Source text: as §1

What is called Kd is the equilibrium constant for the complex coming apart.

T1 sequence (P16109 42-771, change not shown): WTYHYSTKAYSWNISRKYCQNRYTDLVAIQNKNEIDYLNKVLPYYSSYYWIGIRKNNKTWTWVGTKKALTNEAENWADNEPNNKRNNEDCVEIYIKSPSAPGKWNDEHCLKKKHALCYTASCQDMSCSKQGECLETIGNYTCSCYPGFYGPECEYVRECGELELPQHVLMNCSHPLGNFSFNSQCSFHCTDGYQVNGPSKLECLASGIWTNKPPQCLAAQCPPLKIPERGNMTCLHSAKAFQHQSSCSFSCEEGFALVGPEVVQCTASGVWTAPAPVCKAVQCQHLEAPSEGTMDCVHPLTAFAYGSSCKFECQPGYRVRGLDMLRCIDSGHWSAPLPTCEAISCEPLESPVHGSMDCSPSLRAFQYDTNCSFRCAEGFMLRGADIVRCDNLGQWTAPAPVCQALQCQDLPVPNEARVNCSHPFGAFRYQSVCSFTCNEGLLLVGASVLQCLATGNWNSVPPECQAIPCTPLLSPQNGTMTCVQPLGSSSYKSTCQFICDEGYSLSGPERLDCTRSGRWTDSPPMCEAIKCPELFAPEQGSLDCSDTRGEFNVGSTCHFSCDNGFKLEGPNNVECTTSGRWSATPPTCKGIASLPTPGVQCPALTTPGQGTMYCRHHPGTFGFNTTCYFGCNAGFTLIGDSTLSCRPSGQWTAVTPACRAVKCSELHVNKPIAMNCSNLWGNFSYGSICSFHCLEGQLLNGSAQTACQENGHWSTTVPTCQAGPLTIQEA

Consider EYEYLDYDFLPET(Core‑2 O‑glycan hexasaccharide with sLe^x)EPPE (peptide, UniProt Q14242 45-61, looked up, also: tyrosine O-sulfate, positions not given here, Synthetic glycosulfopeptide) [GSP-6], for which the Kd in experiment [1] was approximately 9 nM; in experiment [2] it was approximately 128 nM.
